Earlier results in paper PMC7614842.

Target: C3d C3d (Mus musculus) (UniProt P01027)
UniProt P01027, sequence (P01027 1002-1303): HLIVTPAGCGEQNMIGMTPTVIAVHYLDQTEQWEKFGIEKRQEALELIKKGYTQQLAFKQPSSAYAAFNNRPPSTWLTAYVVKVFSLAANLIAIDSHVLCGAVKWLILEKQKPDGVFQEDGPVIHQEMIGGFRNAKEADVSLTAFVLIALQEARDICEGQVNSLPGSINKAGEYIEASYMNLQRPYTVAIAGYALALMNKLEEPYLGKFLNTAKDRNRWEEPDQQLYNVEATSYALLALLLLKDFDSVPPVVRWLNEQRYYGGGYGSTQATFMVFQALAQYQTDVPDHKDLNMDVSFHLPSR

For CR2 (from UniProt P19070), the Kd is given as 140 nM.
